In patent US20250276043A1, “Pharmaceutical Composition Containing GLP-1 Compound” (Gan & Lee Pharmaceuticals Co., Ltd., priority 2021, published 2025):

Columns and labels:
[1] = Chemical stability: related substances by HPLC after storage (Example 17); type: physicochemical
Method: The content of related impurities was determined using high-performance liquid chromatography (HPLC) on a Waters Kromasil 100-3.5-C8 (4.6*250 mm) column. The column temperature was set at 35° C., and the sample chamber temperature was set at 5° C. The elution was performed at a flow rate of 1.0 ml/min. The eluent consisted of the following components: • Phase A: 90 mM potassium dihydrogen phosphate and 10% acetonitrile (v/v), pH 2.4 • Phase B: 75% acetonitrile (v/v)
The gradient was as follows: linear change of 75%/25% A/B to 55%/45% A/B from 0 to 5 minutes, linear change from 5 to 12 minutes to 50%/50% A/B, linear change from 12 to 42 minutes to 40%/60% A/B, linear change from 42 to 60 minutes to 10%/90% A/B, linear change from 60 to 61 minutes to 75%/25% A/B, and steady gradient of 75%/25% A/B from 61 to 70 minutes.
Detection wavelength was set at 214 nm, flow rate at 1.0 ml/min, and injection volume at 15 μl.

Kkay mice = assay: Long-term pharmacodynamic study in type 2 diabetes Kkay mice (Example 18); type: in vivo; conditions: subcutaneous, 100 and 300 μg/kg; for Reduction in HbA1c (FIG. 5c): 48 hours after the final administration; for Hypoglycemic effect, blood glucose and AUC (FIGS. 5a-5b): once every 2 days, 16 doses
Method: Compound 5 from Example 5 and Compound 2 from Example 2 were tested on type 2 diabetes Kkay mice. The mice were administered different doses of Compound 5 and Compound 2, at 100 and 300 μg/kg, respectively. The effects of the GLP-1 compounds in the GLP-1 pharmaceutical composition of the present invention on reducing blood glucose levels and HbA1c were measured.
Male Kkay mice, 12-14 weeks old, were housed in suitable cages under barrier conditions with free access to standard food and purified water. The environmental conditions were controlled at a relative humidity of 40%-60% and a temperature of 22° C.-24° C. After an adaptation period of 1-2 weeks, the mice were used for the experiment.
Basal blood glucose levels were assessed on the day of the experiment, and the mice were weighed. Based on random blood glucose and body weight, the diabetic mice were divided into a solvent group or a treatment group. The mice in the treatment group received subcutaneous injections of the GLP-1 compounds at doses of 100 and 300 μg/kg. The solvent consisted of propylene glycol (14 mg/ml), phenol (5.5 mg/ml), and disodium hydrogen phosphate (1.133 mg/ml) at pH 7.4.
Subcutaneous administration was performed at the nape of the neck (50 μl/10 g body weight). The GLP-1 compound in the GLP-1 pharmaceutical composition of the present invention or the solvent were administered at approximately 10:00 am (time 0), once every 2 days for a total of 16 doses. Blood glucose levels in the mice were evaluated at 3 hours, 6 hours, 1 day, and 2 days after the initial administration. HbA1c was measured 48 hours after the final administration using EDTA anticoagulant.

[2] = oral semaglutide tablets (RYBELSUS) with SNAC, clinical studies; cited from earlier work

Substance	Maximum individual impurity % ([1]; 25° C./60% RH, 15 month) [%]	Purity of compound 5 % ([1]; 25° C./60% RH, 15 month) [%]	Total impurities % ([1]; 25° C./60% RH, 15 month) [%]	Maximum individual impurity % ([1]; 30° C./65% RH, 1 month) [%]	Purity of compound 5 % ([1]; 30° C./65% RH, 1 month) [%]	Total impurities % ([1]; 30° C./65% RH, 1 month) [%]	Maximum individual impurity % ([1]; 30° C./65% RH, 2 month) [%]	Purity of compound 5 % ([1]; 30° C./65% RH, 2 month) [%]	Total impurities % ([1]; 30° C./65% RH, 2 month) [%]	Maximum individual impurity % ([1]; 30° C./65% RH, 3 month) [%]	Purity of compound 5 % ([1]; 30° C./65% RH, 3 month) [%]	Total impurities % ([1]; 30° C./65% RH, 3 month) [%]	Maximum individual impurity % ([1]; 30° C./65% RH, time 0) [%]	Purity of compound 5 % ([1]; 30° C./65% RH, time 0) [%]	Total impurities % ([1]; 30° C./65% RH, time 0) [%]	Reduction in HbA1c (FIG. 5c) (Kkay mice)	Hypoglycemic effect, blood glucose and AUC (FIGS. 5a-5b) (Kkay mice)	Bioavailability [2]
N-ε^26-[2-(2-[2-(2-[2-(2-[4-(21-carboxyheneicosanoylamino)-4(S) -carboxybutanoylamino]ethoxy)ethoxy]acetylamino)ethoxy]ethoxy)acetyl][Gly8, Arg34]GLP-1-(7-37) peptide [Compound 5]	0.97	96.14	3.86	0.76	96.85	3.15	1.03	96.67	3.33	0.93	95.19	4.81	0.73	96.5	3.5	significant reduction in HbA1c	significant hypoglycemic effects	–
N-ε^26-[2-(2-[2-(4-[19-carboxynonadecanoylamino]-4(S) -carboxybutanoylamino)ethoxy]ethoxy)acetyl][Gly8, Arg34]GLP-1-(7-37) peptide [Compound 2]	–	–	–	–	–	–	–	–	–	–	–	–	–	–	–	significant reduction in HbA1c	significant hypoglycemic effects	–
semaglutide	–	–	–	–	–	–	–	–	–	–	–	–	–	–	–	–	–	around 1%
